In the RNAGym collection of RNA variant scans (doi:10.1073/pnas.2313332121):

B1: TPR t1 (parent)
chain: GACCAAUCUGCCCUCAGAGCUCGAGAACAUCUUCGGAUGCAGAGGAGGCAGGCUUCGGUGGCGCGAUAGCGCCAACGUCCUCAACCUCCAAUGCAUCCCACCACAUGAUGAUGCCUGAAGAGCCUUGGUUUUUUG

Variants of: B1
Test: polymerase ribozyme fitness, log enrichment relative to wild type (log ratio); higher = more active; in vitro selection for triplet polymerase activity
In short: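 Streptavidin-bead capture of gel-excised extended constructs, followed by RT-PCR, closed a single triplicate in vitro selection round. That round began by annealing PCR-built, transcribed mutant libraries of each subunit of a heterodimeric triplet polymerase ribozyme with a biotinylated primer, the partner subunit and triplets, then incubating them frozen at −7 °C. After Illumina sequencing of inputs and outputs, genotypes needed ≥10 input reads and ≥1 read per output. Fitness is the base-2 logarithm of genotype enrichment over wild-type enrichment, using inverse-variance-weighted replicate averages.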

Variant | polymerase ribozyme fitness (log ratio)
C12U U92G U96A | -2.63
G44A A68G | -3.75
C3U C53G | -0.501
A29U G47U C62U | -4.34
A27G G128C | -4.95
G39U G52U | -1.9
A18C U109A | -5.77
A2U A37U G48A C53U G60A C85A | -3.47
U38A G58C C115A | -1.1
A2G G77U C86G G135U | -2.95
C31G U33A C64A G120C | -6.19
G117U U133A | -3.13
A16U C49A G63C | -1.43
C13U C15G A50G G61A | -1.6
U14C G60C C64A U109G | -6.09
G47A C64U G117U | -4.27
U21A G52A C89U | -1.17
G19A G63C C76A G93A G110C | -5.44
G60A G120C | 0.892
U7A A18U G71A A119U G122U G135U | -5.8
U33A C89A | -6.86
A26U C72A U129A | -4.07
U7G U14G C34G | -5.56
C8G C102U | -1.57

Variant | polymerase ribozyme fitness (log ratio)
C8A G48U U59G C73G A105C U112C G120A | -2.35
C49G U106G U116C | -4.97
C70A G110A U133A | -3.64
A27G C104A | -2.31
C3U G113C | -2.47
G110A U131G | -1.96
A41C A46C C114U U131C | -3.66
C3A G52U C123A | -0.759
A43C U55G G61C C79U C97U U116G | -5.31
C12G C40U C49U G65C C114G | -6.07
G58C G69A C123A | -3.42
C12G C28U A66C C72U A84C | -3.81
A5C G63C C94A G113C G122U | -4.6
A5U C114A G122U | -1.76
C114G C115U | -4.37
C3U C15U U106G | -3.3
G69U G93U U109C | -4.75
A121C G127A G128U | -0.559
C8G A16U A18U G58C C79A U109A | -6.59
C62U G110C C124U U125A | -5.16
C11U G45A | -0.828
C8G G17U U59G C115G A118G | 0.49
G42U G47U C123G | -1.61
C13G A83U A95C G110A G120U | -3.42

Variant | polymerase ribozyme fitness (log ratio)
G71U C89A | -2.47
G47A G52A G120A | -0.716
G36U C124G | 0.74
C73G A83U C88G U130A | -3.2
C22A G57U U106A A118G U133C | -3.51
U55G A100C | -0.346
U59A G77U G117U | -2.87
A6U C49U C53U C62A G110A | -5.45
A16U G52U G69A C76U U78C A121C | -3.43
G23U G42U U54G C64G G93C G117C | -6.49
C12A A84U | -1.96
C34A A75G | -2.34
G44U C70A | -2.87
A6U G71C G120C C123G | -0.502
G52A G63U C114A | -3.58
U9A A43U C70U C82A U87C U131A | -1.6
U78G U96A C124G | 1.43
C40G C64G C85A U112C | -6.02
C12U C70U C97A | -5.44
U7C C8U C34G C73U | -5.57
G35U G44A U67C A105G U112A | -6.79
C53A G60A G69C | -3.47
C73U U126A | -1.7
G63U C114A U125A | -4.22

Variant | polymerase ribozyme fitness (log ratio)
U21A A43U C72A | -2.36
G10U C62U C88U C89G A121G U132C | 0.563
U14G C73U A90G | 1.59
A2U G45A C62U C115U U133A | -2.99
C12U C99A | -3.9
A6U G44U G52C G69A A121C | -4.22
G63U C114A U133A | -3.35
U59C G93A | -1.47
A37U A41C U55C U87G C88U | -2.92
U21C A50U C70U C99U A111U | -7.45
C3U G17A G36C C49A A50U G58C G60A C88U G117U | -6.3
C15U G57U C72G U81G | -2.79
G10C C73A C101U U130C | -0.689
A46G G61A A100C U132C | -0.683
G69C C97A | -6.49
U7C U14C C70U | -2.11
C72G G117C A119U | -0.356
G45C A84G C97A | -6.72
U7A A41G A66C | -1.26
A5U C53A C62A G110U U130C | -4.41
A41G C79G C114A | -5.3
G36C C64U C85U | -1.78
U54A C70U G113U C114G A121C | -2.74
A18U G60A C72U G122A U130G | -3.74

Variant | polymerase ribozyme fitness (log ratio)
A5U C8G C20U C40A | -3.31
A103G A118G | -4.56
G71A G113C | -2.6
C11U U14G G19U A29G C31U U32C C72G A111U U129A | -7.29
C13U G60C | -0.502
A6U U92A G117U | -5.86
G36A A37G C72U G122A | -1.5
U7A U87A C89G | -1.86
A37U C114A | -0.828
A5C A18C | -2.78
G45A U92A | -3.38
G10A A84U G110U | -1.93
A5G A18G G117U U125A | -2.93
A2U C94U | -3.62
U81C C114A | -2.34
G10U G44C G61C | -3.37
G120C U133A | 1.48
C102U G120U | -0.992
G17U C89G C104U | -2.94
C40G A90C U106C U116G A119G U125G | -3.17
C49U G128A | -2.63
C11U G63A | -1.15
C72G A95C | -2.36
C76U C79A G120C | 0.319

Variant | polymerase ribozyme fitness (log ratio)
U7A G63U G77C U92G | -5.12
G48A G63C C72U C124G | -0.71
C3A C8A C11G C22A G45U C88G | -5.16
C15G G63A | -3.35
C8U G44U C88G | -1.96
G44U G71U C104U U106A | -1.53
G48C G52A C102A A111C A119U | -4.33
G61A C104A G110A | -3.83
C11G C49A U81G G93U C101G U109A | -5.65
G47U G61C A111C | -2.97
U30A C56A C70U | -7.2
C11U C73G C124U | 0.969
C98A C124G G128A U133G | -6.31
A26U C49U | -3.62
U130C | 0.0585
C15G G44C G47A G69U G135U | -3.36
G45C U92A | -3.97
C11U C13G C56U G93C C114U A119G | -3.78
G19A G48A A91G | -3.87
A18G G58A C79G A118G | -7.2
A43U C123G | 0.036
G45C C72A | -0.797
A5U G19A G57U U78G G113U G135U | -4.71
A46U A111C C124G U131A U132C | -0.582

Variant | polymerase ribozyme fitness (log ratio)
G19U C79U C82U A95C C101A | -4.63
U78A C104U C115U | -1.54
C28A U132C | -4.37
C22G U106G | -3.47
U9A G51A G52A C70G C82U G120C | -5.71
C49A C73A G93U | -1.28
C12U C94A | -0.148
G48U C56G C80G | -3.4
C28G A41C C64U C115A | -2.93
U55C C88U | -0.394
C102U A118G | -1.73
C53A A68U | -6.8
C15A C56U | -1.71
C3U C22G C56U G117C | -4.66
C76G C123U | 1.06
C34A G58C | -2.18
A5C C70G | -2.95
C11A G36C | -2.32
U9C A37U A66C | -1.35
C3U A37C C53G U55C | -1.11
G39A C73U U106A U109C G113A G117A | -5.45
C56U C124U U133G | 1.14
A41C G51A C114G | -6.23
